Results reported in the supplement of paper PMC9116672.
± gives the standard deviation of the averaged measurements or the uncertainty stated by the source.

Key:
[1] = duplex melting temperature (HRM, EvaGreen); higher = more stable duplex
Description: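 Listed DNA strand annealed 1:1 with its complementary strand (95 °C 5 min, 0.1 °C/s to 20 °C). Melted in 1x NNE buffer (500 mM NaCl, 10 mM Na2HPO4, 1 mM EDTA, pH 7.0) with 1x EvaGreen on a LightCycler96 (37 to 97 °C, 0.1 °C/s). Tm is the peak of -dF/dT at the stated total duplex concentration; 4 replicates are averaged. PS oligos are non-stereospecific (Rp/Sp mixtures).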

[2] = duplex formation free energy ΔG50 (Van't Hoff fit of HRM Tm); higher = less stable duplex; details: temperature for dG: 50 °C, NaCl: 500 mM (unadjusted)
Description: (§1)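 Duplex of the listed DNA strand with its complement, in 1x NNE buffer (500 mM NaCl, pH 7.0) with 1x EvaGreen. ΔH and ΔS come from a Van't Hoff linear fit of 1/Tm against ln(CT/4) over 1-20 uM, using HRM Tm values.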

[3] = duplex formation enthalpy ΔH (Van't Hoff fit of HRM Tm); higher = less exothermic duplex formation; details: temperature for dG: 50 °C, NaCl: 500 mM (unadjusted)
Description: as §1

[4] = duplex formation entropy ΔS (Van't Hoff fit of HRM Tm); higher = smaller entropy loss on duplex formation; details: temperature for dG: 50 °C, NaCl: 500 mM (unadjusted)
Description: as §1

[5] = duplex concentration 1 µM, backbone: PS-PO (listed strand fully phosphorothioate, complement phosphodiester)
[6] = duplex concentration 1 µM, backbone: PS-PS (both strands fully phosphorothioate)
[7] = duplex concentration 2.5 µM, backbone: PO-PO (both strands phosphodiester DNA)
[8] = duplex concentration 2.5 µM, backbone: PS-PO (listed strand fully phosphorothioate, complement phosphodiester)
[9] = duplex concentration 2.5 µM, backbone: PS-PS (both strands fully phosphorothioate)
[10] = duplex concentration 5 µM, backbone: PO-PO (both strands phosphodiester DNA)
[11] = duplex concentration 5 µM, backbone: PS-PO (listed strand fully phosphorothioate, complement phosphodiester)
[12] = duplex concentration 5 µM, backbone: PS-PS (both strands fully phosphorothioate)
[13] = duplex concentration 7.5 µM, backbone: PO-PO (both strands phosphodiester DNA)
[14] = duplex concentration 7.5 µM, backbone: PS-PO (listed strand fully phosphorothioate, complement phosphodiester)
[15] = duplex concentration 7.5 µM, backbone: PS-PS (both strands fully phosphorothioate)
[16] = duplex concentration 10 µM, backbone: PO-PO (both strands phosphodiester DNA)
[17] = duplex concentration 10 µM, backbone: PS-PO (listed strand fully phosphorothioate, complement phosphodiester)
[18] = duplex concentration 10 µM, backbone: PS-PS (both strands fully phosphorothioate)
[19] = duplex concentration 15 µM, backbone: PO-PO (both strands phosphodiester DNA)
[20] = duplex concentration 15 µM, backbone: PS-PO (listed strand fully phosphorothioate, complement phosphodiester)
[21] = duplex concentration 15 µM, backbone: PS-PS (both strands fully phosphorothioate)
[22] = duplex concentration 20 µM, backbone: PO-PO (both strands phosphodiester DNA)
[23] = duplex concentration 20 µM, backbone: PS-PO (listed strand fully phosphorothioate, complement phosphodiester)
[24] = duplex concentration 20 µM, backbone: PS-PS (both strands fully phosphorothioate)
[25] = backbone: PO-PO (both strands phosphodiester DNA)
[26] = backbone: PS-PO (listed strand fully phosphorothioate, complement phosphodiester)
[27] = backbone: PS-PS (both strands fully phosphorothioate)

Sequence: GCAGGAGCCGCGACCTG
- duplex melting temperature [1, 5]: 68.45 ± 0.49 °C
- duplex melting temperature [1, 6]: 62.56 ± 0.17 °C
- duplex melting temperature [1, 7]: 78.12 ± 0.35 °C
- duplex melting temperature [1, 8]: 71.31 ± 0.39 °C
- duplex melting temperature [1, 9]: 65.18 ± 0.082 °C
- duplex melting temperature [1, 10]: 79.75 ± 0.071 °C
- duplex melting temperature [1, 11]: 73.48 ± 0.49 °C
- duplex melting temperature [1, 12]: 66.99 ± 0.15 °C
- duplex melting temperature [1, 13]: 80.79 ± 0.2 °C
- duplex melting temperature [1, 14]: 74.78 ± 0.33 °C
- duplex melting temperature [1, 15]: 68.28 ± 0.17 °C
- duplex melting temperature [1, 16]: 81.76 ± 0.16 °C
- duplex melting temperature [1, 17]: 75.68 ± 0.15 °C
- duplex melting temperature [1, 18]: 69.26 ± 0.061 °C
- duplex melting temperature [1, 19]: 82.48 ± 0.27 °C
- duplex melting temperature [1, 20]: 76.9 ± 0.33 °C
- duplex melting temperature [1, 21]: 70.16 ± 0.069 °C
- duplex melting temperature [1, 22]: 83.26 ± 0.12 °C
- duplex melting temperature [1, 23]: 77.68 ± 0.29 °C
- duplex melting temperature [1, 24]: 71.01 ± 0.16 °C
- duplex formation free energy ΔG50 [2, 25]: -17.2 ± 0.47 kcal/mol
- duplex formation free energy ΔG50 [2, 26]: -13.98 ± 0.13 kcal/mol
- duplex formation free energy ΔG50 [2, 27]: -12.81 ± 0.099 kcal/mol
- duplex formation enthalpy ΔH [3, 25]: -100 ± 5.4 kcal/mol
- duplex formation enthalpy ΔH [3, 26]: -77.6 ± 1.8 kcal/mol
- duplex formation enthalpy ΔH [3, 27]: -81.2 ± 1.9 kcal/mol
- duplex formation entropy ΔS [4, 25]: -257 ± 15 cal/mol/K
- duplex formation entropy ΔS [4, 26]: -197 ± 5.2 cal/mol/K
- duplex formation entropy ΔS [4, 27]: -212 ± 5.6 cal/mol/K

Sequence: CCACTAGCGGCGCCGTT
- duplex melting temperature [1, 5]: 67.57 ± 0.56 °C
- duplex melting temperature [1, 6]: 62.65 ± 0.14 °C
- duplex melting temperature [1, 7]: 78.31 ± 0.24 °C
- duplex melting temperature [1, 8]: 70.82 ± 0.38 °C
- duplex melting temperature [1, 9]: 65.52 ± 0.13 °C
- duplex melting temperature [1, 10]: 80.05 ± 0.14 °C
- duplex melting temperature [1, 11]: 73 ± 0.26 °C
- duplex melting temperature [1, 12]: 67.54 ± 0.18 °C
- duplex melting temperature [1, 13]: 81.18 ± 0.29 °C
- duplex melting temperature [1, 14]: 74.33 ± 0.2 °C
- duplex melting temperature [1, 15]: 68.59 ± 0.13 °C
- duplex melting temperature [1, 16]: 81.87 ± 0.19 °C
- duplex melting temperature [1, 17]: 75.285 ± 0.053 °C
- duplex melting temperature [1, 18]: 69.501 ± 0.06 °C
- duplex melting temperature [1, 19]: 83.03 ± 0.12 °C
- duplex melting temperature [1, 20]: 76.37 ± 0.18 °C
- duplex melting temperature [1, 21]: 70.49 ± 0.094 °C
- duplex melting temperature [1, 22]: 83.58 ± 0.28 °C
- duplex melting temperature [1, 23]: 77.3 ± 0.13 °C
- duplex melting temperature [1, 24]: 71.36 ± 0.16 °C
- duplex formation free energy ΔG50 [2, 25]: -17 ± 0.36 kcal/mol
- duplex formation free energy ΔG50 [2, 26]: -13.7 ± 0.17 kcal/mol
- duplex formation free energy ΔG50 [2, 27]: -12.8 ± 0.097 kcal/mol
- duplex formation enthalpy ΔH [3, 25]: -97 ± 4 kcal/mol
- duplex formation enthalpy ΔH [3, 26]: -75.1 ± 2.5 kcal/mol
- duplex formation enthalpy ΔH [3, 27]: -79.8 ± 1.8 kcal/mol
- duplex formation entropy ΔS [4, 25]: -247 ± 11 cal/mol/K
- duplex formation entropy ΔS [4, 26]: -190 ± 7.2 cal/mol/K
- duplex formation entropy ΔS [4, 27]: -207 ± 5.3 cal/mol/K
